Measured values: the DeepSol protein solubility set

Experiment: soluble on expression in E. coli; label from the status in PepcDB or PDB records

Soluble on expression in E. coli, soluble:
MTIATIDIGGTGIKFASLTPDGKILDKTSISTPENLEDLLAWLDQRLSEQDYSGIAMSVPGAVNQETGVIDGFSAVPYIHGFSWYEALSSYQLPVHLENDANCVGLSELLAHPELENAACVVIGTGIGGAMIINGRLHRGRHGLGGEFGYMTTLAPAEKLNNWSQLASTGNMVRYVIEKSGHTDWDGRKIYQEAAAGNILCQEAIERMNRNLAQGLLNIQYLIDPGVISLGGSISQNPDFIQGVKKAVEDFVDAYEEYTVAPVIQACTYHADANLYGALVNWLQEEKQW
GMGKEIEIERKTLVSKETFKRLISQLHIGEGDFKLQRNHYFETDDFQLKKQSSALRIREKEAIFTFTLKQPHPAGLLETNQTLSKQEAKLALESAHFPSGEVMDALRDLSIPISQLKHIGTLSTSRAEISYEQGILCLDHSSYLGIEDYEIEFEGTSEEHATVTFQEILKTFSISQVPTENKIQRFFSKKEKN
GPGSMEEFYGMEVFAGKTAKPNISADRVLHVTQVALPPNASHAITLLVKTEGKSFVLATLDPQQALFHVSVDMLFSGKQKLAFTCEGATGAVHIIGYTQLAEEEEDAIDDEDDDDMMDDEDVA
MAHHHHHHMLGSGKSSGVVNEASNLKANQNLTSAIEEMNTKEYIRNRDLNDVVPTHRRQVEAMMNKGNNNNGKVGLPAYDPAAEKEKERKERGQTHIEDRNDSDDDGELEELRKRRMAQMQQHHAKVAEWRQKQHGQYREISQDEFFSIVVREKGGSDDVCVHFYHKDFETCRVMDSRLLELSRMMLSVKFVKIDAEKSPFLVERLHIKTLPCCVLFHNDVAVDRIYGFEGCIGEDGLLDKELLGERILRAVNCKQEECE
MSLNSLKHPKVRDTRDMWDIREELTSEQKKQEKLLAEINKYDKFVNSYSQTKEMTKETALNNTLQSLKKTAGMTDITGSGIVITISPLFSESLTGEPIENPPPDLLKKLINELNSYGAEHISINERRVVNHTVIRDINGTTKIDGYALDDYPLTVKVLAKDPDMLHSRVKGSGLEDLFASENLALKAGKSESKLTLKAYDRPLDVQQLKLLKDEGHHHHHH
MTTMGEDEAPALPKKSPLPEKIDEADVDDDPDDKVIKIVVVGDGASGKTSICQRFAKESFDKSYHQTLGLDFFSRRITLPHEMQVLVQVWDIGGQSIAGEMIDKYLTGANIVFLVYDVTNSKSFENAVDWLSVVKKNTKSSETPVKLVLMGNKTDLEERRVVSVEAHKNFATSNDMMPTYVSAKTGDTVFLTFRQAVAEVLNVGLSRAEVEADIEIVQGSVIEQPKQSDASYARRSDQSRSTSVCSIT

Soluble on expression in E. coli, not soluble:
VIGYEYPDWIWGWTNTVTYKNFTLSFTLDGRVGGMAHSKTNQAMWNSGAHIDSDNQWRYDEVVNKKTNFVGSGVKVVSGSVDYDSNGKIIHDNRVFAPNDVQVSYESYMKSTNPYIGTVTRQNVFDETFFKLRDLSLSYQMPKSVCDKLHMKGLTLAFVGQNLFVWTKEFRFTDPDSDSDNLSSPSTRYLGFNVKLDF
MGSDKIHHHHHHMLQQVPTRAFHVIAKPSGSDCNLNCDYCFYLEKQSLYREKPVTHMDDDTLEAYIRHYIAASELQNEVAFTWQGGEPTLLGLEFYRRAVALQAKYGAGRKISNSFQTNGVLLDDEWCAFLAENNFLVGLSLDGPAEIHNQYRVTKGGRPTHKLVMRALTLLQKHHVDYNVLVCVNRTSAQQPLQVYDFLCDAGVEFIQFIPVVERLADETAVRDGLKLHAPGDIQGELTEWSVRPDEFGEFLVAIFDHWIKRDVGKIFVMNIEWAFANFVGAPGAVCHHQPTCGRSVIVEHNGDVYACDHYVYPQYRLGNMHQQTIAEMIDSPQQQVFGEDKFKQLPAQCRSCNVLKACWGGCPKHRFMLDASGKPGLNYLCAGYQRYFRHLPPYLKAMADLLAHGRPASDIMQAHLMVVNK
MGSDKIHHHHHHMNLTIRQFRAFLAVADLRSFTAASKYLCITQGAVSGLINEMESQMEVSLFDRTSRVVKLSPDGEKFLPAAMRVVEEFQRAENYARDLKEIKKSLVRVVGAPLIACAFLPQIIHAFKRQHPHTHVQLIDKPMSQLQKSIMLGEADFGIGPERPLEPEIDKQTLFTTEIALYCHPDYRLHKKTVRWEEIQSEELIAVGNESIPMISATAGVRIKPKMTVEHMATAMSLAAQCEGVVIAGTFSRHYAKSYQLATCSLTPPLRRNMNLYFHAWRAQTPATQRFRDFLFSYVDEHHDAPANQR
MPIEATMSTSNESANLLVPSFLPRGEVLGWNLTSVVNPVTRRKEYTYTVCVQTVGAFQCTEQAGVVLVKCDGPCGNKLPTNHLIALGKCDHMLCKACFGIVKNPDGSYGCSNFYCWSEPRGNFRKEKANYNKVINKQICRARKFKQDGEDLQACSKSNLPKTPADLSDREMNSAKSSESDTSSSDGSSYQSTVDSYGLPKRF
MNTESSPFVFNVGTLVRGSAVPASVQQTGPSPVRIGPAMIAIPENGDVTVNATITPLGDALMVDADVSAELSGECVRCLQHMAPRAQFHVNEVFALTEDFITGDDGDGEDDDVTVITGDTVDILQAVIDEAGMSLPFNPQCEGGCVQSDSDVPEPDGIAGETELVDPRWAGLEKFL
MSETKNDIAWERIFKKYRILEKIKKNGAFEITSGQINEFREARLMTKFDHRKNLPKIFEENNFSILPITRGSYLIAQFKAYHRLEEKETEIIKIPFPTYIESIDYENITSEAAALNCAYVSGILADFIEDEEMVPTVTGRMSSDAFCFYINTYSGSKFKVNVTNAQIEIDGGYEGLGTFSLIEAKNSLSDDFIIRQIYYPYRLWHDKINKKVKPIFMTYSNGIFTFYEYEFQDPEDYNSLTLVKQKKYSIEETEIGLDDIIEIYKRTKIINEPEVPFPQADSFERIINLCELLNESELTRDEITTNYDFDSRQTNYYTDAARYLGLVHKRKEGREVIFSLTEEGEKLFKLKYKPRQLKFVELILSHKVFREVFELCLKNGKMPDKHEVVKIMRYSNLYKIESEKTFYRRAQTIMSWIKWILELTRL
MHKLLISLMMLLSFQAFSQVQEYTLNNGLKVLVKEDHRAPVVVSMIWYNVGSADEPVGITGVSHAIEHMMFKGTSKYPVGVFSKTIAALGGQENAFTNNDYTAYYEKLDAGHLATSFELEADRMNNLLLNSEEFAKEIKVIQEERRLRTDNNPQALAFERFLATAHLTAPYNHPVIGWMNDLKQMKVEDLKKWYESYYAPNNATLVVVGDVNPEKVHALAEHYFGSIAKRPIASRKPQQEPSALGKKMVYINAPAKLPLLLIGYTVPSVKTAKNNWEPYALEIIAGILDAGESARFAKHLVRGNQVATGAEAYYNLYSRYQSQFIVYGAPSQDHQIKDLEKALITELEALKKAPVSNQELQRVKNQIIAQKTFEKDSIFGQAMELGLLETIGLGWKNTETYTKAINEITPEQIQQVAQRYFQENNMTVAELKPIRQEEVRP
MSLEKESEWKGPFYFILGADPQFGLIKAWSTGDCDNGGDEWEQEIRLTEQAVQAINELNPKPKFFVLCGDLIHAMPGKPWRTEQTEDLKRVLRAVDRAIPLVLVSGNHDIGNTPTAETVEEFCRTWGDDYFSFWVGGVLFLVLNSQFYENPSKCPSLKQAQDQWLDEQLSIARQRHCQHAIVFQHIPLFLESIDEDDDYYFNLSKSTRKELADKFIHAGVRVVFSGHYHRNAGGTYQNLDMVVSSAIGCQLGRDPHGLRVVVVTAEKIVHRYYSLDELSEKGIEDDLMDLEGHHHHHH
MNKKIYVGMTADIMHPGLIHIIHEATKYGDVIVGLLTDKAIAEHKRLPYLTYDQRKEVVENIKGVCEVVPQEDWSYVPNLEKLKPDYIIHGDDWKTGPLREVREQVFEVMNAQGGKVIEIPYTRGINSSSLDKDIKAIGTTPDVRLKSLRRLIQAKPVVRILEAHDGLCGLIIENLEVQKGDKREVFDGMWSSSLTDSTSKGKPDIEAVDLTTRLQDLNNILECTTKPIIFDGDTGGKIEHFVFTVRTLERHGISAVIIEDKVGLKKNSLFGTDAIQTQDSIEGFCDKIRAGKNAQVTGDFMIIARIESLIAGKPMSDALERAYAYVQAGADGIMIHSKDKSGEDIREFCRTFRKEYAHVPIVVVPTTYDHVHESELHEWGANVVIYANHLLRAAYPAMMNVARTILENERAEEVRPLCMPIKEILELIPGTK
MGSDKIHHHHHHMARYSKKMKLLINTPSLKFLGGGVANHYIGLRTFWTENVKYNVVGRRGGKSGSGKYWLPWDIFKFIFRLLTFRPNIILLNPSLGDKALKRDFIYLNICRFFRKKTSVFIHGFNFEYAKNADWKWISTNLNKALCIFVLSQEFKNELIRRGVKSDIHLTSTKVPDYFISGFDLSMRQGKAKNIMYSGRIEKAKGVYETVDTFSILKSQYKDLTLTFVGDGSELPKLKQYVENKKIKDVRFTGRLCGEDFKKEYINADMYLFLSYTEGMPTVVLEAMIFGLPIFTRKVGGLIDFFENGKMGYISSSLDPVVFAEAMKPYIESSAKMKSVSLYNSEYARTHFIASVVARKFENTLNYEYFKNQEHREH
MGSDKIHHHHHHMKFFKSLLIAPAALGLMAPVAVNADTAFSPTTKLKSSVNFTVGSNADSADGDELHSSYEMKWKATTSFTGEDKLVGKFEIGSGKTLAGGIDPQSSKGGGKTPTLTDLYYQFPLAEDLTISIGPKMDGDQGLAGTTSVYGEPVLLAADGYYALAGEGGTGATIAYAGDNGWNASLNMTAADGDDASKGIFGDDTEDYVTAQLGFDGDGFGGTFTYSDSSDTYTAYGIGAYFQPESIPVTVSAYFDSMDPEKGEEDENWVVGVEADAGPGTLGVGVGTQKGTDEKLTYEAWYDYKIADGVKITPMIWTSEDAGVGGEDLSGAALNVKYKF
MNYTLKNDHLNVVVDTFGAEMHSIQHDDIEYLWQADAKFWGRHAPVLFPIVGKLKNGEYRYNDKTYKMGGHGFARDNDFELIKKSADELVFELRDNEDSLNHYPFHFVFRVSYKLVDNKIRVRYEVKNEDEKFMSFGVGAHPAFNVPLKNGTFEDYQLTISPDEKRTFIPLDPPSGTLKLDERVESQVSQLPLTRALFDKDALVYTSSKEMKVSLTNKLDDHGVSLTWKNMPYFGLEHHHHHH
MGSDKIHHHHHHMEVASATNNPVQNPAGALAAPGNDAASLKNEFMTLMIAQIKNQDPTKPLNSAEYISQLAQFSQVESLEGMRKNQSNQMIMMENLGIVQSASLIGKNAMVPVSEFKLDGETVEGKVYLENAVEALDIEIVNSEGQVVHTMQLGAQAVGDIRFAIDPDELGLEKGQYEIKAKATLGENSLVAPTYIKAPIERIHFSSASGMMMAEMGHGVGVISVLNISEVS
VRDVLDNQEFGFTGLHVAAAVADTLGTGDTLFAAASNSIRDLSLVGMPFDGVDTFSPRGVAGIDGSVAQAIGTSLAVQSRHPDEIRAPRTVALLGDLSFLHDIGGLLIGPDEPRPENLTIVVSNDNGGGIFELLETGADGLRPNFERAFGTPHDASIADLCAGYGIEHQVVDNLQDLIIALVDTTEVSGFTIIEASTVRDTRRAQQQALMDTVH
MTVDLTNVFQQIDGDYDNLKELLREAVAIQSVSGDPSKRDETIRMVHWMKEKLETIGTICELADLGTQELEGKTVKLPPVLLGTLGSDKNKKTLLVYGHLDVQPAAKSDGWDTEPFELVEKDGKLFGRGSSDDKGPVLCWFHAIRAAQKNGIDLPVNIKFCLEGMEESGSVGLPELLEREKDRFLAGVDFVCISDSYWLGTKKPCLTYGLRGICSFFVEVTGIKQDLHSGVFGGVIHEPLQDLMWVMSQLTTVDNRIKIPGLYEQVAPLSAAEEKTYDDIEFDVAEFRDSVGASKLPTEDKKTLLLRRWREPSLAFHGIEGAFYGPGEKTVIPSKVIGKFSIRIVPDMDPEQVNRLTVEYLNKVWAERGSPNVFKPRPGHSAKPWVVDVNDSNFLAGARAMKRVHGVEPDRIREGCSIPITLTFQELTGKSVLLLPIGAADDMAHSQNEKNNIWNYVEGVKTLLAYIMELGSA
